# Results: patent EP0574621A1
# Like-named read-outs stand apart in the source and are kept apart here.
# Experiments:
# von Willebrand factor [1] = molecular target: von Willebrand factor (UniProt P04275); assay: cell-based or functional assay
# von Willebrand factor [2] = molecular target: von Willebrand factor (UniProt P04275)
# von Willebrand factor [3] = molecular target: von Willebrand factor (UniProt P04275); assay: ratio of IC50 values from the competitive radiolabelled botrocetin binding assay
# von Willebrand factor [4] = molecular target: von Willebrand factor (UniProt P04275); assay: competitive inhibition of 125I-two-chain botrocetin binding to vWF in solution by unlabeled two-chain botrocetin; vWF captured on 2-2-9 IgG coated wells
Substance,Half maximal binding capacity (BM50) (von Willebrand factor [1]) [µg/mL],concentration giving maximal vWF binding to glycoprotein Ib (von Willebrand factor [1]) [µg/mL],minimum concentration necessary to induce vWF binding to glycoprotein Ib (von Willebrand factor [1]) [µg/mL],IC50 (von Willebrand factor [2]) [µg/mL],fold greater activity (BM50) than one-chain botrocetin (von Willebrand factor [1]) [fold],fold higher affinity than one-chain botrocetin (von Willebrand factor [3]) [fold],IC50 (von Willebrand factor [4]) [µg/mL]
one-chain botrocetin,5.5,17,1,55,–,–,–
two-chain botrocetin,0.16,–,–,–,34,32,1.7
